{"source": "patent US20200087373A1", "about": "(UNIVERSITY OF COPENHAGEN, published 2020)", "binders": {"B1": {"name": "AT153 [hGIP(3-30)NH2[H18R; K30R]-C12/16] (peptide)", "peptide": "EGTFISDYSIAMDK(Lauroyl)IRQQDFVNWLLAQR-NH2", "modifications": "N-terminus assumed", "SMILES": "CCCCCCCCCCCC(=O)NCCCC[C@H](NC(=O)[C@H](CC(=O)O)NC(=O)[C@H](CCSC)NC(=O)[C@H](C)NC(=O)[C@@H](NC(=O)[C@H](CO)NC(=O)[C@H](Cc1ccc(O)cc1)NC(=O)[C@H](CC(=O)O)NC(=O)[C@H](CO)NC(=O)[C@@H](NC(=O)[C@H](Cc1ccccc1)NC(=O)[C@@H](NC(=O)CNC(=O)[C@@H](N)CCC(=O)O)[C@@H](C)O)[C@@H](C)CC)[C@@H](C)CC)C(=O)N[C@H](C(=O)N[C@@H](CCCNC(=N)N)C(=O)N[C@@H](CCC(N)=O)C(=O)N[C@@H](CCC(N)=O)C(=O)N[C@@H](CC(=O)O)C(=O)N[C@@H](Cc1ccccc1)C(=O)N[C@H](C(=O)N[C@@H](CC(N)=O)C(=O)N[C@@H](Cc1c[nH]c2ccccc12)C(=O)N[C@@H](CC(C)C)C(=O)N[C@@H](CC(C)C)C(=O)N[C@@H](C)C(=O)N[C@@H](CCC(N)=O)C(=O)N[C@@H](CCCNC(=N)N)C(N)=O)C(C)C)[C@@H](C)CC"}, "B2": {"name": "AT144 [hGIP(3-30)NH2[K16R; H18K; K30R]-C16/18] (peptide)", "peptide": "EGTFISDYSIAMDRIK(Palmitoyl)QQDFVNWLLAQR-NH2", "modifications": "N-terminus assumed", "SMILES": "CCCCCCCCCCCCCCCC(=O)NCCCC[C@H](NC(=O)[C@@H](NC(=O)[C@H](CCCNC(=N)N)NC(=O)[C@H](CC(=O)O)NC(=O)[C@H](CCSC)NC(=O)[C@H](C)NC(=O)[C@@H](NC(=O)[C@H](CO)NC(=O)[C@H](Cc1ccc(O)cc1)NC(=O)[C@H](CC(=O)O)NC(=O)[C@H](CO)NC(=O)[C@@H](NC(=O)[C@H](Cc1ccccc1)NC(=O)[C@@H](NC(=O)CNC(=O)[C@@H](N)CCC(=O)O)[C@@H](C)O)[C@@H](C)CC)[C@@H](C)CC)[C@@H](C)CC)C(=O)N[C@@H](CCC(N)=O)C(=O)N[C@@H](CCC(N)=O)C(=O)N[C@@H](CC(=O)O)C(=O)N[C@@H](Cc1ccccc1)C(=O)N[C@H](C(=O)N[C@@H](CC(N)=O)C(=O)N[C@@H](Cc1c[nH]c2ccccc12)C(=O)N[C@@H](CC(C)C)C(=O)N[C@@H](CC(C)C)C(=O)N[C@@H](C)C(=O)N[C@@H](CCC(N)=O)C(=O)N[C@@H](CCCNC(=N)N)C(N)=O)C(C)C"}, "B3": {"name": "AT154 [hGIP(3-30)NH2-C12/16] (peptide)", "peptide": "EGTFISDYSIAMDK(Lauroyl)IHQQDFVNWLLAQK-NH2"}, "B4": {"name": "AT159 [hGIP(3-30)NH2[K16R; H18K; K30R]-C16diacid/18] (peptide)", "peptide": "EGTFISDYSIAMDRIK(C16 diacid)QQDFVNWLLAQR-NH2", "modifications": "N-terminus assumed", "SMILES": "CC[C@H](C)[C@H](NC(=O)[C@H](CO)NC(=O)[C@H](Cc1ccc(O)cc1)NC(=O)[C@H](CC(=O)O)NC(=O)[C@H](CO)NC(=O)[C@@H](NC(=O)[C@H](Cc1ccccc1)NC(=O)[C@@H](NC(=O)CNC(=O)[C@@H](N)CCC(=O)O)[C@@H](C)O)[C@@H](C)CC)C(=O)N[C@@H](C)C(=O)N[C@@H](CCSC)C(=O)N[C@@H](CC(=O)O)C(=O)N[C@@H](CCCNC(=N)N)C(=O)N[C@H](C(=O)N[C@@H](CCCCNC(=O)CCCCCCCCCCCCCCC(=O)O)C(=O)N[C@@H](CCC(N)=O)C(=O)N[C@@H](CCC(N)=O)C(=O)N[C@@H](CC(=O)O)C(=O)N[C@@H](Cc1ccccc1)C(=O)N[C@H](C(=O)N[C@@H](CC(N)=O)C(=O)N[C@@H](Cc1c[nH]c2ccccc12)C(=O)N[C@@H](CC(C)C)C(=O)N[C@@H](CC(C)C)C(=O)N[C@@H](C)C(=O)N[C@@H](CCC(N)=O)C(=O)N[C@@H](CCCNC(=N)N)C(N)=O)C(C)C)[C@@H](C)CC"}, "B5": {"name": "AT149 [hGIP(3-30)NH2[H18R; K30R]-C12diacid/3] (peptide)", "peptide": "{C12 diacid}-EGTFISDYSIAMDKIRQQDFVNWLLAQR-NH2", "SMILES": "CC[C@H](C)[C@H](NC(=O)[C@H](CO)NC(=O)[C@H](Cc1ccc(O)cc1)NC(=O)[C@H](CC(=O)O)NC(=O)[C@H](CO)NC(=O)[C@@H](NC(=O)[C@H](Cc1ccccc1)NC(=O)[C@@H](NC(=O)CNC(=O)[C@H](CCC(=O)O)NC(=O)CCCCCCCCCCC(=O)O)[C@@H](C)O)[C@@H](C)CC)C(=O)N[C@@H](C)C(=O)N[C@@H](CCSC)C(=O)N[C@@H](CC(=O)O)C(=O)N[C@@H](CCCCN)C(=O)N[C@H](C(=O)N[C@@H](CCCNC(=N)N)C(=O)N[C@@H](CCC(N)=O)C(=O)N[C@@H](CCC(N)=O)C(=O)N[C@@H](CC(=O)O)C(=O)N[C@@H](Cc1ccccc1)C(=O)N[C@H](C(=O)N[C@@H](CC(N)=O)C(=O)N[C@@H](Cc1c[nH]c2ccccc12)C(=O)N[C@@H](CC(C)C)C(=O)N[C@@H](CC(C)C)C(=O)N[C@@H](C)C(=O)N[C@@H](CCC(N)=O)C(=O)N[C@@H](CCCNC(=N)N)C(N)=O)C(C)C)[C@@H](C)CC"}, "B6": {"name": "AT158 [hGIP(3-30)NH2[H18K]-C16diacid/18] (peptide)", "peptide": "EGTFISDYSIAMDKIK(C16 diacid)QQDFVNWLLAQK-NH2", "modifications": "N-terminus assumed", "SMILES": "CC[C@H](C)[C@H](NC(=O)[C@H](CO)NC(=O)[C@H](Cc1ccc(O)cc1)NC(=O)[C@H](CC(=O)O)NC(=O)[C@H](CO)NC(=O)[C@@H](NC(=O)[C@H](Cc1ccccc1)NC(=O)[C@@H](NC(=O)CNC(=O)[C@@H](N)CCC(=O)O)[C@@H](C)O)[C@@H](C)CC)C(=O)N[C@@H](C)C(=O)N[C@@H](CCSC)C(=O)N[C@@H](CC(=O)O)C(=O)N[C@@H](CCCCN)C(=O)N[C@H](C(=O)N[C@@H](CCCCNC(=O)CCCCCCCCCCCCCCC(=O)O)C(=O)N[C@@H](CCC(N)=O)C(=O)N[C@@H](CCC(N)=O)C(=O)N[C@@H](CC(=O)O)C(=O)N[C@@H](Cc1ccccc1)C(=O)N[C@H](C(=O)N[C@@H](CC(N)=O)C(=O)N[C@@H](Cc1c[nH]c2ccccc12)C(=O)N[C@@H](CC(C)C)C(=O)N[C@@H](CC(C)C)C(=O)N[C@@H](C)C(=O)N[C@@H](CCC(N)=O)C(=O)N[C@@H](CCCCN)C(N)=O)C(C)C)[C@@H](C)CC"}, "B7": {"name": "AT148 [hGIP(3-30)NH2-C12/3] (peptide)", "peptide": "Lauroyl-EGTFISDYSIAMDKIHQQDFVNWLLAQK-NH2"}}, "target": "T1, human GIP receptor (human, UniProt P48546 22-466)", "T1 sequence (looked up)": "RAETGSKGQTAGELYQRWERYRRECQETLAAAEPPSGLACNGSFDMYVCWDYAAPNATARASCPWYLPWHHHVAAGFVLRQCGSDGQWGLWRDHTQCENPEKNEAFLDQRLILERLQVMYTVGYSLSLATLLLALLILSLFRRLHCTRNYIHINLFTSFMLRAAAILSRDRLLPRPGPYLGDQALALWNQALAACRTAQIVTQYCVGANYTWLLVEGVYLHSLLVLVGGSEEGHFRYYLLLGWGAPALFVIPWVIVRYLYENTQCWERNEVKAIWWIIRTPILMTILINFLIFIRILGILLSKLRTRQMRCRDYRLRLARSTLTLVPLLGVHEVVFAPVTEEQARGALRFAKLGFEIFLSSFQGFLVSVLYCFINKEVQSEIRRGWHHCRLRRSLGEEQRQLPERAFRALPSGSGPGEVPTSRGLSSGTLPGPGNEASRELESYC", "test": "cell-based or functional assay", "note": "Ends that are not written are not given here. * marks the point of attachment. C16 diacid = O=C(O)CCCCCCCCCCCCCCC(=O)*; C12 diacid = O=C(O)CCCCCCCCCCC(=O)*; Palmitoyl = CCCCCCCCCCCCCCCC(=O)*; Lauroyl = CCCCCCCCCCCC(=O)*", "data": [{"binder": "B1", "values": [{"measurement": "cAMP agonism, Emax", "value": 0, "unit": "%"}, {"measurement": "cAMP antagonism, log (IC50)", "value": -6.7, "unit": "log M"}, {"measurement": "cAMP antagonism, nM (IC50)", "value": 187, "unit": "nM"}]}, {"binder": "B2", "values": [{"measurement": "cAMP agonism, Emax", "value": 0, "unit": "%"}, {"measurement": "cAMP antagonism, log (IC50)", "value": -7.3, "unit": "log M"}, {"measurement": "cAMP antagonism, nM (IC50)", "value": 53.3, "unit": "nM"}]}, {"binder": "B3", "values": [{"measurement": "cAMP agonism, Emax", "value": 0, "unit": "%"}, {"measurement": "cAMP antagonism, log (IC50)", "value": -7.2, "unit": "log M"}, {"measurement": "cAMP antagonism, nM (IC50)", "value": 63, "unit": "nM"}]}, {"binder": "B4", "values": [{"measurement": "cAMP agonism, EC50 (log)", "value": -8.7, "unit": "log M"}, {"measurement": "cAMP agonism, Emax", "value": 6, "unit": "%"}, {"measurement": "cAMP agonism, nM (EC50)", "value": 2, "unit": "nM"}, {"measurement": "cAMP antagonism, log (IC50)", "value": -8.2, "unit": "log M"}, {"measurement": "cAMP antagonism, nM (IC50)", "value": 6, "unit": "nM"}]}, {"binder": "B5", "values": [{"measurement": "cAMP agonism, Emax", "value": 50, "unit": "%"}]}, {"binder": "B6", "values": [{"measurement": "cAMP agonism, EC50 (log)", "value": -8.5, "unit": "log M"}, {"measurement": "cAMP agonism, Emax", "value": 6, "unit": "%"}, {"measurement": "cAMP agonism, nM (EC50)", "value": 3.1, "unit": "nM"}, {"measurement": "cAMP antagonism, log (IC50)", "value": -8.3, "unit": "log M"}, {"measurement": "cAMP antagonism, nM (IC50)", "value": 5, "unit": "nM"}]}, {"binder": "B7", "values": [{"measurement": "cAMP agonism, EC50 (log)", "value": -7.9, "unit": "log M"}, {"measurement": "cAMP agonism, Emax", "value": 43, "unit": "%"}, {"measurement": "cAMP agonism, nM (EC50)", "value": 13, "unit": "nM"}]}]}
